Test results published in the supplement of paper PMC10724198.
± gives the standard deviation of the averaged measurements.

Columns and labels:
Saccharomyces cerevisiae [1] = assay: protein stability index of tFT-peptide fusion in wild type (PSI (0-1 scale)); higher = more stable (slower turnover); conditions: genetic background: wild type
Protocol: (§1)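 MPS profiling in S. cerevisiae of two library types built from selected 12-aa C-degron peptides (IN1, IN2, LN1, LN3, VN2, R1-R5, W1-W3, Atg1 and Rpa12 C-termini): saturation mutagenesis libraries and C-terminal +1 capping libraries (13 aa). Each peptide is fused to the C-terminus of a sfGFP-mCherry timer, after a GGGS linker. Cells are FACS-sorted into 8 mCherry/sfGFP bins and sequenced. PSI runs from 0 (unstable) to 1 (stable), measured once in wild type and in the das1Δ or doa10Δ background.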

Saccharomyces cerevisiae [2] = assay: protein stability index of tFT-peptide fusion in deletion strain of DAS1 (PSI (0-1 scale)); higher = more stable (slower turnover)
Protocol: as §1

Saccharomyces cerevisiae [3] = assay: protein stability index of tFT-peptide fusion (C-terminal peptide) (PSI (0-1 scale)); higher = more stable (slower turnover); conditions: temperature: 30 C
Protocol: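 MPS profiling in S. cerevisiae of the yeast C-terminome library: the last 12 aa of each annotated ORF are fused to the C-terminus of a sfGFP-mCherry timer, after a GGGS linker. Cells are FACS-sorted into 8 mCherry/sfGFP bins and deep-sequenced. PSI runs from 0 (unstable) to 1 (stable); wild type and das1Δ backgrounds, two technical replicates each.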

[4] = genetic background: das1 deletion
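For protein stability index of tFT-peptide fusion in deletion strain of DAS1 in this document: PSI is a weighted mean of each variant's read distribution over the sorted stability bins, computed only for variants having over 10 reads in total.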
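For protein stability index of tFT-peptide fusion in wild type in this document: PSI derived as read-weighted mean over the 8 sorting bins, only variants exceeding 10 total reads kept, mCherry placed adjacent to the peptide and sfGFP distal.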

Sequence | protein stability index (Saccharomyces cerevisiae [1]) | protein stability index (Saccharomyces cerevisiae [2]) | protein stability index (Saccharomyces cerevisiae [3]; [4]) | protein stability index (Saccharomyces cerevisiae [3]; genetic background: wild type)
LVVYLSCVACIP | 0.0232 | 0.0442 | – | –
VDMKWGSFPIFQ [YPR1 C-terminal 12 aa] | – | – | 0.7256 ± 0.0028 | 0.7 ± 0.027
TKYKTVTVTAKT [YMR244W C-terminal 12 aa] | – | – | 0.652 ± 0.014 | 0.71 ± 0.034
ITLRLWEQRQAK [MAD1 C-terminal 12 aa] | – | – | 0.754 ± 0.019 | 0.726 ± 0.0076
WTTEPYLQRIIW [DIE2 C-terminal 12 aa] | – | – | 0.753 ± 0.0089 | 0.718 ± 0.016
LFQALKLEWEII [TEP1 C-terminal 12 aa] | – | – | 0.7038 ± 0.0018 | 0.69 ± 0.037
GAQIISLDEDVF [GIP1 C-terminal 12 aa] | – | – | 0.715 ± 0.045 | 0.716 ± 0.037
KGTKRDQNDNHN [AQR1 C-terminal 12 aa] | – | – | 0.698 ± 0.01 | 0.6782 ± 0.0022
KERIVLSNVRPM [TFC7 C-terminal 12 aa] | – | – | 0.6909 ± 0.004 | 0.686 ± 0.027
IYIYTSTLQLCV [YHR028W-A C-terminal 12 aa] | – | – | 0.376 ± 0.024 | 0.362 ± 0.011
EGENVRSKVERF [YKL070W C-terminal 12 aa] | – | – | 0.7262 ± 0.0046 | 0.704 ± 0.053
KRRNWRRTKMNI [RPL39 C-terminal 12 aa] | – | – | 0.682 ± 0.017 | 0.705 ± 0.04
DISVQQVKIASK [SPF1 C-terminal 12 aa] | – | – | 0.682 ± 0.018 | 0.6857 ± 0.0041
TDDKEKLLKTLK [ACC1 C-terminal 12 aa] | – | – | 0.698 ± 0.016 | 0.734 ± 0.023
STCIYLYTHNSM [YBR206W C-terminal 12 aa] | – | – | 0.672 ± 0.027 | 0.673 ± 0.023
GLEFHDVEDRIA [PEX18 C-terminal 12 aa] | – | – | 0.7047 ± 0.0036 | 0.702 ± 0.013
MSSTKKVRFVML [RMD5 C-terminal 12 aa] | – | – | 0.696 ± 0.035 | 0.642 ± 0.035
LGDSPSQGRSIS [YPK2 C-terminal 12 aa] | – | – | 0.685 ± 0.012 | 0.688 ± 0.024
WERTMRDLKLIH [ALG1 C-terminal 12 aa] | – | – | 0.742 ± 0.027 | 0.64 ± 0.033
GYACPTHYLREM [MXR1 C-terminal 12 aa] | – | – | 0.6899 ± 0.0052 | 0.7169 ± 0.0063
FEGKPLYQMLKI [YAL047W-A C-terminal 12 aa] | – | – | 0.638 ± 0.031 | 0.551 ± 0.011
RMLMGTTKRGRF [YAL037W C-terminal 12 aa] | – | – | 0.704 ± 0.02 | 0.6898 ± 0.0036
DFENKLKKKKRK [TMA64 C-terminal 12 aa] | – | – | 0.7268 ± 0.0047 | 0.715 ± 0.018

Sequence | protein stability index (Saccharomyces cerevisiae [1]) | protein stability index (Saccharomyces cerevisiae [2]) | protein stability index (Saccharomyces cerevisiae [3]; [4]) | protein stability index (Saccharomyces cerevisiae [3]; genetic background: wild type)
NGTMKRGGVKNK [HPC2 C-terminal 12 aa] | – | – | 0.697 ± 0.02 | 0.6239 ± 0.0045
STTTVIQGEINK [LRG1 C-terminal 12 aa] | – | – | 0.671 ± 0.049 | 0.713 ± 0.036
ILRPLELKYFGR [FCY2 C-terminal 12 aa] | – | – | 0.707 ± 0.029 | 0.675 ± 0.027
KDGFVLYSYGQK [SKP2 C-terminal 12 aa] | – | – | 0.69 ± 0.021 | 0.738 ± 0.034
YIFQTYVSVDSK [YAR047C C-terminal 12 aa] | – | – | 0.62 ± 0.036 | 0.58 ± 0.015
RTAAESIANDRK [FRD1 C-terminal 12 aa] | – | – | 0.674 ± 0.0068 | 0.708 ± 0.05
EDDITVVVVRVD [PTC7 C-terminal 12 aa] | – | – | 0.646 ± 0.019 | 0.673 ± 0.02
LNNKDTKSVRHA [BRR6 C-terminal 12 aa] | – | – | 0.667 ± 0.029 | 0.711 ± 0.026
LTHQSLLATARK [KIP3 C-terminal 12 aa] | – | – | 0.6931 ± 0.0014 | 0.6879 ± 0.00097
NASIFTVLSYCS [YEL020C-B C-terminal 12 aa] | – | – | 0.6702 ± 0.0016 | 0.668 ± 0.02
IIGIYYVLKWLR [BOS1 C-terminal 12 aa] | – | – | 0.3507 ± 0.0021 | 0.392 ± 0.0089
MEALKEAREILG [MSH1 C-terminal 12 aa] | – | – | 0.7025 ± 0.0022 | 0.628 ± 0.019
KYFCDFLLDPEI [ECM14 C-terminal 12 aa] | – | – | 0.741 ± 0.0083 | 0.719 ± 0.01
HKSGKLLLPVYI [ECO1 C-terminal 12 aa] | – | – | 0.636 ± 0.0084 | 0.619 ± 0.03
KEGRRSRTRTSS [YJR098C C-terminal 12 aa] | – | – | 0.7049 ± 0.0033 | 0.703 ± 0.0041
SKGKNSESGGIF [PPR1 C-terminal 12 aa] | – | – | 0.699 ± 0.026 | 0.711 ± 0.054
LSDDEEEEEEEE [RIX1 C-terminal 12 aa] | – | – | 0.648 ± 0.048 | 0.645 ± 0.033
KNLWEKFWAAVA [LYP1 C-terminal 12 aa] | – | – | 0.693 ± 0.0092 | 0.28 ± 0.021
VIIVPIAVHFSR [SNC1 C-terminal 12 aa] | – | – | 0.561 ± 0.024 | 0.581 ± 0.0095
LLGFTTGKEVHL [SMF2 C-terminal 12 aa] | – | – | 0.6939 ± 0.0046 | 0.701 ± 0.014
VLGDVIKIAQRL [HOM6 C-terminal 12 aa] | – | – | 0.728 ± 0.008 | 0.747 ± 0.031
PDVLRKLSHQNV [PNS1 C-terminal 12 aa] | – | – | 0.713 ± 0.0075 | 0.666 ± 0.025
AIHLEAVSLVDC [CIS3 C-terminal 12 aa] | – | – | 0.599 ± 0.011 | 0.611 ± 0.024
